Experiments:
Assay in all cases: FRET by FACS (LSRII)
WT TACI-YFP = settings: HEK-293T cells, double positive YFP and mCherry gate, 6 independent experiments, read off a plot
[1] = target: CD40-eYFP (pReceiver-huCD40-eYFP) (UniProt P25942); settings: co-transfected HEK-293T cells; percent of live cells in the gate, averaged for 6 experiments
[2] = target: TACI-S (short TACI isoform) labeled with mCherry or YFP, O14836-2; settings: co-transfected HEK-293T cells; percent of live cells in the gate, averaged for 6 experiments
[3] = target: TACI-L (long TACI isoform) labeled with mCherry or YFP (UniProt O14836); settings: co-transfected HEK-293T cells; percent of live cells in the gate, averaged for 6 experiments
Sequence of TACI-L (long TACI isoform) labeled with mCherry or YFP (O14836 whole entry, canonical isoform): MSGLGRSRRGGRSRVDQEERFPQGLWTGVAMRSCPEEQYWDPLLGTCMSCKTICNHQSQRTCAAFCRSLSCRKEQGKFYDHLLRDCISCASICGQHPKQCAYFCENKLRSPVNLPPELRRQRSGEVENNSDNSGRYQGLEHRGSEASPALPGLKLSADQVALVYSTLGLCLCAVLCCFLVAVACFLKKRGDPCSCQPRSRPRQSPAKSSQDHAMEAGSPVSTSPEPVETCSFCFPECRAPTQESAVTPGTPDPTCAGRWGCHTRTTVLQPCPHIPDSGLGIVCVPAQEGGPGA

Sequence of TACI-S (short TACI isoform) labeled with mCherry or YFP, O14836-2 (O14836 other isoform, or with tags, fused parts or gaps): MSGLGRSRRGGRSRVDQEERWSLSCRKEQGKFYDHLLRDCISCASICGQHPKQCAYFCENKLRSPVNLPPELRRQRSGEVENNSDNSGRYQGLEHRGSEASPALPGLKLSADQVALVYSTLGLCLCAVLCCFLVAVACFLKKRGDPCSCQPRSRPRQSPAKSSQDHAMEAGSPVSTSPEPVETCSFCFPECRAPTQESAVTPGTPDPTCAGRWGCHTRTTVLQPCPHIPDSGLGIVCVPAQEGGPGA
Sequence of CD40-eYFP (pReceiver-huCD40-eYFP) (P25942 21-277): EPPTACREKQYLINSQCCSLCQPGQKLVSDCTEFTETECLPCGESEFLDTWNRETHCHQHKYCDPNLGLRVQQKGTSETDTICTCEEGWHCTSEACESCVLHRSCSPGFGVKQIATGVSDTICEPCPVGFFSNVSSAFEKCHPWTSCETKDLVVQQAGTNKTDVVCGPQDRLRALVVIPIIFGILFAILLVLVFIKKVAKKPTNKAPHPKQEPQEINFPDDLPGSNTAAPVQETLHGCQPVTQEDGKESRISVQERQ

| Substance | response (% FRET positive cells) (WT TACI-YFP; parent: est. 90) | response (% FRET positive cells) (WT TACI-YFP; parent: est. 72) | response (% FRET positive cells) [1] | response (% FRET positive cells) [2] | response (% FRET positive cells) [3] |
| --- | --- | --- | --- | --- | --- |
| TACI-S A181E |  | 88 |  |  |  |
| WT TACI (isoform of the mutant not stated in the panel) A181E |  |  | 0.38 | 19.6 | 16.8 |

Further lines, results first:

| response (% FRET positive cells) (WT TACI-YFP; parent: est. 90) | response (% FRET positive cells) (WT TACI-YFP; parent: est. 72) | response (% FRET positive cells) [1] | response (% FRET positive cells) [2] | response (% FRET positive cells) [3] | Substance |
| --- | --- | --- | --- | --- | --- |
| 72 |  |  |  |  | TACI-L A181E |
| 81 |  |  |  |  | TACI-L C104R |
|  | 74 |  |  |  | TACI-S C104R |
|  |  | 0.02 | 18.7 | 14.8 | WT TACI (isoform of the mutant not stated in the panel) C104R |

From article PMC6176016
